Laboratory results from patent US20230406921A1.
Numbering of substitutions follows the chain as printed.

B1: h140Hm13/h140Lm11 (antibody, V domains shown)
VH: EVQLVQSGAEVKKPGASVKVSCKASGYKFTNYVMSWVRQAPGQRLEWMGYINPYNDAIKYNEKFTGRVTITRDTSASTAYMELSSLRSEDTAVYYCAREGDFYANYGRLGFAYWGQGTLVTVSS
VL: DIQMTQSPSSLSASVGDRVTITCRASQDITNYLNWYQQKPGKAPKLLIYYTSRLSSGVPSRFSGSGSGTDYTFTISSLQPEDIATYFCQQGDTRPYTFGGGTKVEIK
B2: h140Hm13/h140Lm17 (antibody, V domains shown)
VH: B1 VH
VL: B1 VL with S55Q, R94E
B3: h140Hm13/h140Lm18 (antibody, V domains shown)
VH: B1 VH
VL: B1 VL with S55Q, R94N
B4: h140Hm13/h140Lm13 (antibody, V domains shown)
VH: B1 VH
VL: B1 VL with S55H, R94F
B5: h140Hm13/h140Lm14 (antibody, V domains shown)
VH: B1 VH
VL: B1 VL with S55Q, R94Y
B6: h140Hm13/h140Lm16 (antibody, V domains shown)
VH: B1 VH
VL: B1 VL with S55Q, R94S
B7: h140Hm13/h140Lm12 (antibody, V domains shown)
VH: B1 VH
VL: B1 VL with S55Q
B8: h140Hm13/h140Lm15 (antibody, V domains shown)
VH: B1 VH
VL: B1 VL with S55Q, R94K

target: CD47 on the surface of human red blood cells (human) (UniProt Q08722); test: FACS, hRBC, 500 nM

FACS (MFI)	Binder
789 MFI	B1
689 MFI	B2
697 MFI	B3
1760 MFI	B4
921 MFI	B5
721 MFI	B6
946 MFI	B7
954 MFI	B8
